We go through 30 sequences from the nanobody polyreactivity screen of Harvey et al. (2022).

This series in a line: yeast display, Sf9 membrane polyspecificity reagent, FACS + sequencing; frameworks hold sequencing errors. The essentials:
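Genes from sorted yeast were amplified by colony PCR, read by MiSeq 2 × 250 sequencing and filtered on CDR length. These cells carried a synthetic nanobody library in Saccharomyces cerevisiae BJ5465 and were sorted by FACS into low and high (top ~1%) gates on anti-HA and streptavidin fluorescence. Polyreactivity is labelled according to the gate of origin.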
As to “QVQLVESGGGLLQAGGSLRLSCAASGSTFVYYAMGWYRQAPGKERELVAAISRSGGNTYYADSVKGRITISRDNAKNTVYLQRNSLKPEDTAVYYSAARSYGVQYYYWGQGTKVTVSS”, the “polyreactivity (PSR sort gate)” value is “high polyreactivity”.

Turning to “QVQLVESGGGLLQAGGSLRLSCPASGRIFDPYTMGSYRQAPGKERELVARITRRGGRTYYADSVKGRFTISRDNAKNTVYLQMNSLKPEDTAVYYCNADFSYRYYGAYDDWGQGTQVTVSS”, the “polyreactivity (PSR sort gate)” value is “high polyreactivity”.

On to “QVQLVESGGGLLQAGGSLRLSSAASVRIFPSYAMGWYRQARGKEREFVAAITRGGASTYYADSVKGRFTISRDNAKNTVYFEMNSLKPEVTAVYYCAKDAYRYGGFSWTTGMDYWGQGTQVTVSA”, for which the “polyreactivity (PSR sort gate)” value was “high polyreactivity”.

Consider “QVQLVESGGGLLQAGGSRRIRCAASGRIFWVYAMGWYRKAPGKERELVAAISSTGDGTYYADSVKVRFTISRDNAKNSVYLEMNSLKPDDTAVYYCAADFRVARSPLSGGSDFWGQGTQVTVSS”, for which the “polyreactivity (PSR sort gate)” value is “low polyreactivity”.

As for “QVQLVESGGGLLQAGVSLRLSCASSGRIIDRNAMGWYRQAPGKERELVAAISSSGSTNYADSVKGRFTISRDNAKNTVYLQMNSLKPEDTAVYYCDARWRSVLAAGTRPVSFDYWGQGTQVTVSS”, the “polyreactivity (PSR sort gate)” value was “low polyreactivity”.

Turning to “QVQLVESGGGLVEAGGSLRISCAASGFIFGPYAMGWYRQAPGKERELVAASWRGGSTYYADSVKGRFTISRDNAKNTVYLQMNSLKPEDTAVYYCAADVIYSLYYYWGQGTQVTVSS”, the “polyreactivity (PSR sort gate)” value was “low polyreactivity”.

In the case of “QVQLVESGGGLVEAGGSLRISCAASGYIFLRNAMGWYRQAPGKERELVAAIRRTGGSTYYADSVKGRFTISRDNAKNSVYVQMNSLKPEASAVYYCAKRSYTGYEYWGQGNQVTVSS”, the “polyreactivity (PSR sort gate)” value is “low polyreactivity”.

As for “QVQLVESGGGLVEAGGSLRLSCAASGAIFQYAMGWYRQAPGKERELVAGITYRGSTYYADSVKGRFTISRDNAKNTVYLQMNSMKPEDTAVYDCAALQRGFGYRPRRWSYDYWGQGTQVTVSS”, the “polyreactivity (PSR sort gate)” value was “high polyreactivity”.

Consider “QVQLVESGGGLVEAGGSLRLSCAASGNIFVNYAMEWYRQAPGKERELVAAISWSGGSTYYADSVKGRFTISRDNAKNTVYLQINRLKAEDTAVYYCAADYTGHLYYYWVQGTQVTVSS”, for which the “polyreactivity (PSR sort gate)” value was “low polyreactivity”.

As for “QVQLVESGGGLVEAGGSLRLSCAASGRTFANNAMGWYRQAPGKERELVARISNSGSTNYADSVKGRFTISRDNANNTVYLQMNSLNPEDTAVYYCAARIVRLYSRYDYWGQGTQVTVSS”, the “polyreactivity (PSR sort gate)” value is on record as “low polyreactivity”.

For the sequence “QVQLVESGGGLVEAGGSLRLSCAASGSIFAVNTMGWYRKAPGKERELVASITRGGSTNYADSVKGRFAISRDNAKKSVYLQMNSQKPEDSAVYYCAARPTWWYDYWGQGNQVTVSS”, the “polyreactivity (PSR sort gate)” value is “high polyreactivity”.

For “QVQLVESGGGLVEAGGSLRLSCAASGSIFGNYALGWYRQAPGKERELVAAITSSNGNTYNADSVKGRFTISRDTAKNTVYFQMNSLKPEDTAVYYCATDSWSPYLQTIFYYWGHGTQVTVSS”, the “polyreactivity (PSR sort gate)” value is on record as “low polyreactivity”.

As for “QVQLVESGGGLVEAGGSLRLSCAASGSIFSYNAMGWYRQAPGKERELVAAITDGGDRTYYADSVKGRFTISRDNAKNTVYLLMNSLIPEATAVYYCAAELYSYREDYGAHFAYEYWGQGTQVTVSS”, the “polyreactivity (PSR sort gate)” value was “low polyreactivity”.

“QVQLVESGGGLVEAGGSLRLSCAASGSILYYNAMGWYRQAPGKERELVAAISTRGGSTYYADSVKGRFTSSRDNAKKTVYLQMNSLKPEDTAVYYCAADHNVIWGYYYWGQGTQVTVSS”: the “polyreactivity (PSR sort gate)” value is listed as “high polyreactivity”.

For the sequence “QVQLVESGGGLVEAGGSLRLSCAASGSTFGSNAMGWYRQGPGKARELVARISKRGGSTYYADSVKGRFTISRDKAKNTVSIQINSLKPDDTAVYYCNVRSWWGYTGPYDYWRQGTQVTVSS”, the “polyreactivity (PSR sort gate)” value is on record as “high polyreactivity”.

On to “QVQLVESGGGLVEAGGSLRLSCAASGTFVYNAMGWYIQAPGKERELVAAISWSGSSTYADSVKGRFTISRDNAKNTVYLQMNSLKPEDTAVYYCAADGYGYNTYQQYYKKSSYWGQGTQVSVSS”, for which the “polyreactivity (PSR sort gate)” value was “low polyreactivity”.

Consider “QVQLVESGGGLVEGGGSLRLSCAASGFTFGRYTMGWYRQATGKERELVAAISWSGGSTYYADSVKGRFTISRDNAKNTVYLQLNSLKQEDTAVYNCATRLKSVSGGYNYWGQGTQVTVSS”, for which the “polyreactivity (PSR sort gate)” value is listed as “high polyreactivity”.

“QVQLVESGGGLVHAGCSLRLSCAASGFFFDYNAMGWYRQAPGKERELVAAISISGGGTYYADSVKGRFTISRDNAKNTVYLQKNSLKPEDTAVYYCAAAGIGGGGWGQGTQVTVSS”: the “polyreactivity (PSR sort gate)” value is reported as “low polyreactivity”.

For the sequence “QVQLVESGGGLVHAGGCLRLSCAASGRNFYYYTMGWSRQEPGKERELVASISRSGDRTYYADSVKGRFTISRDYAKNTVYLQMNSLKPEDTAVYYCNAQKYPRYSRTSGRNYFFWGQGTQVTVSS”, the “polyreactivity (PSR sort gate)” value is reported as “high polyreactivity”.

Consider “QVQLVESGGGLVHAGGILRLSCAASGRTFPYYAMGWYRQAPGKERELVAAISSSGGGTYYADSVKGRFTISRDTAKNTVYLQMNSLKPEDTAVYYCNAVSYYQDSFYYWGQGTQVTVSS”, for which the “polyreactivity (PSR sort gate)” value is listed as “high polyreactivity”.

Consider “QVQLVESGGGLVHAGGRLRLSCPPSGRIFSYYTMGWYRQAPGKERELVAAISRGVSTNYADSVKGRFTISRDNAKNTVYLQMNSLKPEYSAVYYCNARHTWYYKYLHEYWGQGTQVTVSS”, for which the “polyreactivity (PSR sort gate)” value is reported as “high polyreactivity”.

With “QVQLVESGGGLVHAGGSHRLSCAASGRTFPGYPMGWYIPAPGTERELVAGISYRGGSTYFADSVKGRFTISRDNAKNTVYLQMNSLKPEDTAVYFCARDYSRHKGDYWGQGTQGTVSS”, the “polyreactivity (PSR sort gate)” value was “low polyreactivity”.

As to “QVQLVESGGGLVHAGGSLLLSCAASGSTLRPNAMGWYRKAPGKERELVDAISSGGSTYYADSVKGRFTISRDNAKYSVYLQMNSLKPEDTAVYSCAAASERSGYYYWGQGTQVTVSS”, the “polyreactivity (PSR sort gate)” value is “high polyreactivity”.

Turning to “QVQLVESGGGLVHAGGSLRLICAGSGFTFRGYAMGWYRQAPGKEMELVADITSGGSTYYADSVKGRFTISRDNAKNTVYLQMNSLKPEDTAVYYCAPRQRSRSRYDYWGQGTQVTVSS”, the “polyreactivity (PSR sort gate)” value is given as “high polyreactivity”.

Consider “QVQLVESGGGLVHAGGSLRLSCAAPGRTSRYYVMGWYRQAPGKERELVAAISKNGGSTYYADSVKGRFTISRDNAKNTVYLQMNSLKPEDTAVYFCAASYYPFSYGHGYDYWGQGTQVTVSS”, for which the “polyreactivity (PSR sort gate)” value is recorded as “high polyreactivity”.

“QVQLVESGGGLVHAGGSLRLSCAASGFIFYYNAMGWYRHAPGKERELVAGISRSAGSTYYADSVKGRFTISRDNAKNSVYLQMNSLKPEDTAVDYCAARYLSYITGTSYYWGQVTQVTVSS”: the “polyreactivity (PSR sort gate)” value is “low polyreactivity”.

On to “QVQLVESGGGLVHAGGSLRLSCAASGFNFIVYAMGWYRQAPGKERELVASITYSGGGTYYADSVKGRFTISRDNAKNTVYLQMNSLIPEDTAVYYCNADVSWSYSVYREYGMDYWGQGTQVTVSS”, for which the “polyreactivity (PSR sort gate)” value is “low polyreactivity”.

As to “QVQLVESGGGLVHAGGSLRLSCAASGFTFAYNAMGWYRQAPGKERELVAAIRRRGGITYYADSVKGRFTISRDNAKNTVYLQMNSLKPEDTAVYYCNAVRSYPAGYDSWGQGTQVTVSS”, the “polyreactivity (PSR sort gate)” value is given as “low polyreactivity”.

As for “QVQLVESGGGLVHAGGSLRLSCAASGFTFDSNDKGWYRQAPGKERELVAAISTGGSTYYADSVKGRFTISRDNAKNTVYLQMNRLKPEDTAVYYCARDPPYPDTWYGYWGQGSQVTVSS”, the “polyreactivity (PSR sort gate)” value is “low polyreactivity”.

For “QVQLVESGGGLVHAGGSLRLSCAASGFTFGGYAKGWYIQAPGKERELVAAISQSGGRTYYADSVKGRFTISRDHAKNTFYLQMNSLKPEDTAVYYCAKPSTTYYQRGDYWGQGTQVTVSS”, the “polyreactivity (PSR sort gate)” value was “high polyreactivity”.
